Reference: PMC9482650, “Quantitative fragmentomics allow affinity mapping of interactomes” (Nature Communications, 2022)

Key:
Test in all cases: holdup assay
Design in all cases: key: below the threshold = too weak to quantify, mostly under pKd 3.1 to 4
[1] = molecular target: T1, MPDZ_12, O75970
T1 sequence (O75970 1857-1958, limits assumed, looked up): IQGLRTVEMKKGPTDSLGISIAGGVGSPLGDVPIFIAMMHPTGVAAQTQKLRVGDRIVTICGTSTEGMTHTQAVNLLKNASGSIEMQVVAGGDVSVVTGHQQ

[2] = molecular target: T2, PDZD7_3, Q9H5P4
T2 sequence (Q9H5P4 857-944, limits assumed, looked up): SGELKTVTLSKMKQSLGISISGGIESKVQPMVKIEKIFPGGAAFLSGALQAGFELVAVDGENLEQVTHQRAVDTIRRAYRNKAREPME

[3] = molecular target: T3, GRIP1_3, Q9Y3R0
T3 sequence (Q9Y3R0 247-346, limits assumed, looked up): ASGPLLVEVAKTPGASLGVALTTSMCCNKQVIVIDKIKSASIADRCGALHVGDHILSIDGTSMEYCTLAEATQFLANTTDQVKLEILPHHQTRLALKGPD

[4] = molecular target: NHERF2_2, Q15599
Sequence of NHERF2_2, Q15599 (Q15599 142-238): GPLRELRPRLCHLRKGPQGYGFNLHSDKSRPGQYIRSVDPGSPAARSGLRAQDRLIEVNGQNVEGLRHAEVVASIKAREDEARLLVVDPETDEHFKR

[5] = molecular target: T4, PARD3B_1, Q8TEW8
T4 sequence (Q8TEW8 196-299, limits assumed, looked up): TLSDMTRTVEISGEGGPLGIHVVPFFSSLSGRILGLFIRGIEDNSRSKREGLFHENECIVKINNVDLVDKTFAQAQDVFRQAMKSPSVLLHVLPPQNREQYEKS

[6] = molecular target: FRMPD2_2, Q68DX3
Sequence of FRMPD2_2, Q68DX3 (Q68DX3 944-1038): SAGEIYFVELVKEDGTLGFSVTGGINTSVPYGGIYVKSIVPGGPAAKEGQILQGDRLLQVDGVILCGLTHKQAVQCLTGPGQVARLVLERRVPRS

[7] = molecular target: FRMPD2_3, Q68DX3
Sequence of FRMPD2_3, Q68DX3 (Q68DX3 1073-1166): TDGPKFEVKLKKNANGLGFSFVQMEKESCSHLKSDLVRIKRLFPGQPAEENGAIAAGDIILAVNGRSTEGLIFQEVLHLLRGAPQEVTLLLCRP

[8] = molecular target: T5, APBA1_2, Q02410
T5 sequence (Q02410 742-832, limits assumed, looked up): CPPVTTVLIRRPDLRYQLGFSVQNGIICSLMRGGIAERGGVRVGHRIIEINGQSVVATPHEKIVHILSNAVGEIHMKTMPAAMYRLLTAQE

[9] = molecular target: LAP2, Q96RT1
Sequence of LAP2, Q96RT1 (Q96RT1 other isoform, or with tags, fused parts or gaps): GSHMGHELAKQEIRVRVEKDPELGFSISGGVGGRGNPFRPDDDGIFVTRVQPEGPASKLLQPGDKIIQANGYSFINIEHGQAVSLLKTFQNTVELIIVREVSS

[10] = molecular target: Inadl_6, Q8NI35
Sequence of Inadl_6, Q8NI35 (Q8NI35 1058-1167): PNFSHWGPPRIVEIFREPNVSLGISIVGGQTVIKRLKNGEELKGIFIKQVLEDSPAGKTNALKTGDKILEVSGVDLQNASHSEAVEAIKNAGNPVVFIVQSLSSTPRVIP

[11] = molecular target: T6, PTPN13_1, Q12923
T6 sequence (Q12923 1088-1188, limits assumed, looked up): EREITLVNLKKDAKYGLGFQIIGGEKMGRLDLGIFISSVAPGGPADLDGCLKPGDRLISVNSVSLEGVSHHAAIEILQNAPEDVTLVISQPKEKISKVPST

[12] = molecular target: Inadl_4, Q8NI35
Sequence of Inadl_4, Q8NI35 (Q8NI35 547-651): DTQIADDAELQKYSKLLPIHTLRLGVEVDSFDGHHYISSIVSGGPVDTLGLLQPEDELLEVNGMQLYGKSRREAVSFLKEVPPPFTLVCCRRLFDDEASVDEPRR

[13] = molecular target: GIPC2, Q8TF65
Sequence of GIPC2, Q8TF65 (Q8TF65 112-203): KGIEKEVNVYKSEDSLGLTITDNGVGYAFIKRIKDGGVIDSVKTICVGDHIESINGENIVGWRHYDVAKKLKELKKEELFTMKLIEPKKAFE

[14] = molecular target: MAGI2_4, Q86UL8
Sequence of MAGI2_4, Q86UL8 (Q86UL8 772-865): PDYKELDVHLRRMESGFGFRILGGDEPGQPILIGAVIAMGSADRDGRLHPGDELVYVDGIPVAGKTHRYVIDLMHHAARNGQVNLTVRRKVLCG

[15] = molecular target: T7, DFNB31_1, Q9P202
T7 sequence (Q9P202 135-233, limits assumed, looked up): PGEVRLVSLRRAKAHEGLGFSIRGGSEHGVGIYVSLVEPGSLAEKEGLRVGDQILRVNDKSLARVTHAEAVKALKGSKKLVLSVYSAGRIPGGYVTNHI

[16] = molecular target: T8, GRIP1_4, Q9Y3R0
T8 sequence (Q9Y3R0 467-571, limits assumed, looked up): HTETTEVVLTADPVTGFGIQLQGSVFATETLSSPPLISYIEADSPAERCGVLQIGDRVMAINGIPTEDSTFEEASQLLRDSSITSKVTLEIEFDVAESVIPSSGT

[17] = molecular target: T9, MPP6, Q9NZW5
T9 sequence (Q9NZW5 125-219, limits assumed, looked up): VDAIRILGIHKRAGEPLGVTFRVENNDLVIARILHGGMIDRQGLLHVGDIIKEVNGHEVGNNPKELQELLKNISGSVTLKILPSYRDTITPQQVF

[18] = molecular target: T10, APBA3_1, O96018
T10 sequence (O96018 389-490, limits assumed, looked up): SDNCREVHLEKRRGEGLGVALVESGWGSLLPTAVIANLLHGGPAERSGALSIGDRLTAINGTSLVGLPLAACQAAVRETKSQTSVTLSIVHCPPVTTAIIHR

[19] = molecular target: CASK, O14936
Sequence of CASK, O14936 (O14936 487-570): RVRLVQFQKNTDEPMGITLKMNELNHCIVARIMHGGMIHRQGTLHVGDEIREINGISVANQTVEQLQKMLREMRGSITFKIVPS

[20] = molecular target: TJP1_2, Q07157
Sequence of TJP1_2, Q07157 (Q07157 181-274): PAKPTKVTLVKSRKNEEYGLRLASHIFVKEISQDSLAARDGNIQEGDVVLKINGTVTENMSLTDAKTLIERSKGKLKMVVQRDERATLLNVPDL

[21] = molecular target: T11, SHANK1, Q9Y566
T11 sequence (Q9Y566 658-767, limits assumed, looked up): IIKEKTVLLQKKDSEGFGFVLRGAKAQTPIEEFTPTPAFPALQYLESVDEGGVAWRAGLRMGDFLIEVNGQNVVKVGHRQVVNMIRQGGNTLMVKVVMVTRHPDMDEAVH

[22] = molecular target: DLG1_2, Q12959
Sequence of DLG1_2, Q12959 (Q12959 314-412): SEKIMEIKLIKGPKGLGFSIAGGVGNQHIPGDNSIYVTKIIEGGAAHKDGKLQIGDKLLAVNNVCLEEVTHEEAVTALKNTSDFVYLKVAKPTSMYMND

[23] = molecular target: T12, DLG3_2, Q92796
T12 sequence (Q92796 221-321, limits assumed, looked up): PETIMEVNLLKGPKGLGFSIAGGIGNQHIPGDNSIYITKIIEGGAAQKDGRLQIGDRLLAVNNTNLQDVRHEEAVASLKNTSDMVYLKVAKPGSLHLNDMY

[24] = molecular target: T13, PCLO, Q9Y6V0
T13 sequence (Q9Y6V0 4491-4600, limits assumed, looked up): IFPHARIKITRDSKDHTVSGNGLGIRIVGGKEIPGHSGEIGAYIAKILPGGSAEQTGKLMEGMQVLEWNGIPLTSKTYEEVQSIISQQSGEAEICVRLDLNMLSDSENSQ

[25] = plain residues with an end cap or a label only (N-terminal biotin on a linker: ttds)
[26] = plain residues with an end cap or a label only (N-terminal biotin on a linker: ado-ado)
[27] = plain residues with an end cap or a label only (N-terminal biotin on a linker: ahx)

PKRPFVESNV [TANC2, Q9HCD6]
pKd [1, 25]: below the threshold | pKd [2, 25]: below the threshold | pKd [3, 25]: below the threshold | pKd [4, 25]: below the threshold | pKd [5, 25]: below the threshold | pKd [6, 25]: below the threshold | pKd [7, 25]: below the threshold | pKd [8, 25]: below the threshold | pKd [9, 25]: 4.74 | pKd [10, 25]: below the threshold | pKd [11, 25]: below the threshold | pKd [12, 25]: below the threshold | pKd [13, 25]: below the threshold | pKd [14, 25]: below the threshold | pKd [15, 25]: below the threshold | pKd [16, 25]: below the threshold | pKd [17, 25]: below the threshold | pKd [18, 25]: below the threshold | pKd [19, 25]: below the threshold | pKd [20, 25]: below the threshold | pKd [21, 25]: below the threshold | pKd [22, 25]: 4.65 | pKd [23, 25]: 4.54 | pKd [24, 25]: below the threshold

SEKHFRETEV [HTLV1-TAX1, P03409]
pKd [1, 25]: below the threshold | pKd [2, 25]: 4.82 | pKd [3, 25]: below the threshold | pKd [4, 25]: below the threshold | pKd [5, 25]: below the threshold | pKd [6, 25]: below the threshold | pKd [7, 25]: 3.77 | pKd [8, 25]: 3.56 | pKd [9, 25]: 4.99 | pKd [10, 25]: 3.69 | pKd [11, 25]: below the threshold | pKd [12, 25]: below the threshold | pKd [13, 25]: 3.82 | pKd [14, 25]: 4.49 | pKd [15, 25]: 3.96 | pKd [16, 25]: below the threshold | pKd [17, 25]: below the threshold | pKd [18, 25]: below the threshold | pKd [19, 25]: below the threshold | pKd [20, 25]: below the threshold | pKd [21, 25]: below the threshold | pKd [22, 25]: 5.75 | pKd [23, 25]: 5.56 | pKd [24, 25]: below the threshold

HIVEALETDV [PBK, Q96KB5]
pKd [1, 25]: below the threshold | pKd [2, 25]: 4.6 | pKd [3, 25]: below the threshold | pKd [4, 25]: 3.97 | pKd [5, 25]: below the threshold | pKd [6, 25]: 4.66 | pKd [7, 25]: below the threshold | pKd [8, 25]: 4.27 | pKd [9, 25]: 5.04 | pKd [10, 25]: 3.78 | pKd [11, 25]: below the threshold | pKd [12, 25]: below the threshold | pKd [13, 25]: 4.55 | pKd [14, 25]: 4.4 | pKd [15, 25]: 4.03 | pKd [16, 25]: below the threshold | pKd [17, 25]: below the threshold | pKd [18, 25]: below the threshold | pKd [19, 25]: below the threshold | pKd [20, 25]: below the threshold | pKd [21, 25]: below the threshold | pKd [22, 25]: 5.66 | pKd [23, 25]: 5.71 | pKd [24, 25]: below the threshold

GFGEERESIL [KIDINS220, Q9ULH0]
pKd [1, 26]: below the threshold | pKd [2, 26]: 5.03 | pKd [3, 26]: below the threshold | pKd [4, 26]: 4.67 | pKd [5, 26]: 4.57 | pKd [6, 26]: below the threshold | pKd [7, 26]: below the threshold | pKd [8, 26]: below the threshold | pKd [9, 26]: below the threshold | pKd [10, 26]: 4.1 | pKd [11, 26]: below the threshold | pKd [12, 26]: below the threshold | pKd [13, 26]: 3.87 | pKd [14, 26]: below the threshold | pKd [15, 26]: below the threshold | pKd [16, 26]: below the threshold | pKd [17, 26]: below the threshold | pKd [18, 26]: below the threshold | pKd [19, 26]: below the threshold | pKd [20, 26]: below the threshold | pKd [21, 26]: 3.87 | pKd [22, 26]: 3.88 | pKd [23, 26]: below the threshold | pKd [24, 26]: below the threshold

VNKVWDQSSV [CIT, O14578]
pKd [1, 25]: below the threshold | pKd [2, 25]: below the threshold | pKd [3, 25]: below the threshold | pKd [4, 25]: below the threshold | pKd [5, 25]: below the threshold | pKd [6, 25]: below the threshold | pKd [7, 25]: below the threshold | pKd [8, 25]: 3.49 | pKd [9, 25]: 4.04 | pKd [10, 25]: below the threshold | pKd [11, 25]: below the threshold | pKd [12, 25]: below the threshold | pKd [13, 25]: 3.51 | pKd [14, 25]: below the threshold | pKd [15, 25]: 3.52 | pKd [16, 25]: below the threshold | pKd [17, 25]: below the threshold | pKd [18, 25]: below the threshold | pKd [19, 25]: below the threshold | pKd [20, 25]: below the threshold | pKd [21, 25]: 3.57 | pKd [22, 25]: 3.48 | pKd [23, 25]: below the threshold | pKd [24, 25]: below the threshold

EKLSSIESDV [GRIN2B, Q13224]
pKd [1, 27]: below the threshold | pKd [2, 27]: 3.77 | pKd [3, 27]: below the threshold | pKd [4, 27]: below the threshold | pKd [5, 27]: below the threshold | pKd [6, 27]: 3.91 | pKd [7, 27]: below the threshold | pKd [8, 27]: below the threshold | pKd [9, 27]: 4.26 | pKd [10, 27]: below the threshold | pKd [11, 27]: below the threshold | pKd [12, 27]: below the threshold | pKd [13, 27]: 4.33 | pKd [14, 27]: 3.61 | pKd [15, 27]: below the threshold | pKd [16, 27]: below the threshold | pKd [17, 27]: below the threshold | pKd [18, 27]: below the threshold | pKd [19, 27]: below the threshold | pKd [20, 27]: below the threshold | pKd [21, 27]: below the threshold | pKd [22, 27]: 4.97 | pKd [23, 27]: 4.96 | pKd [24, 27]: below the threshold
